Usually Kd stands for a measure of binding affinity in units of concentration. A high value points to a looser complex.

For one molecule, Kd results are on record in PMC2756145.

Common to all, as to test: filter binding
Data set [1] has as its target T1, Pot1-DBD_L122A (Schizosaccharomyces pombe, UniProt O13988 1-389, L122A).
T1 sequence: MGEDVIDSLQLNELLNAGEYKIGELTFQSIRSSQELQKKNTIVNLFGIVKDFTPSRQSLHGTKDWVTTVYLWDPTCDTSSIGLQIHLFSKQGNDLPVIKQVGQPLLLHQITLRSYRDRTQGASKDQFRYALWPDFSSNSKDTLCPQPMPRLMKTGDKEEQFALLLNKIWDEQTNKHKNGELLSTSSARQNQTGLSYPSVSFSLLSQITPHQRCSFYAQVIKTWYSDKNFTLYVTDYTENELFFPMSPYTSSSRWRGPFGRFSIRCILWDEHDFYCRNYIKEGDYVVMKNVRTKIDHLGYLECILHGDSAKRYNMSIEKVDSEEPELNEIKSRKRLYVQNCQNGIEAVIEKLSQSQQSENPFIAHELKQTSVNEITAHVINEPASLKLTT

Data set [2] addresses T2, Pot1-DBD_T62A (Schizosaccharomyces pombe, UniProt O13988 1-389, T62A).
T2 sequence: T1 sequence with T62A, A122L

Data set [3] deals with T3, Pot1-DBD_Y115A (Schizosaccharomyces pombe, UniProt O13988 1-389, Y115A).
T3 sequence: T1 sequence with Y115A, A122L

Substitutions are numbered along the chain they refer to.

For GGTTACGGTTAC (ssDNA) [12mer], the Kd in data set [1] came to 90 ± 7 nM; in data set [2] it was 90 ± 3 nM; in data set [3], 80 ± 4 nM.
